This sample holds only a part of the variants without activity.
B1: TPR 5TU (parent)
chain: GGAUCUUCUCGAUCUAACAAAAAAGACAAAUCUGCCACAAAGCUUGAGAGCAUCUUCGGAUGCAGAGGCGGCAGCCUUCGGUGGCGCGAUAGCGCCAACGUUCUCAACUAUGACACGCAAAACGCGUGCUCCGUUGAAUGGAGUUUAUCAUG

Variants of: B1
Test: polymerase ribozyme fitness, log enrichment relative to wild type (log ratio); higher = more active; in vitro selection for triplet polymerase activity
Outline: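 Input and output libraries were sequenced on Illumina after a single in vitro selection round, run in triplicate on PCR-built, transcribed mutant libraries of each subunit of a heterodimeric triplet polymerase ribozyme. Selection annealed libraries to a biotinylated primer, the partner subunit and triplets, incubated them frozen at −7 °C, then gel-excised extended constructs for streptavidin-bead capture and RT-PCR. Genotypes with ≥10 input reads and ≥1 read per output were kept. Fitness is the logarithm, taken in base 2, of genotype enrichment divided by wild-type enrichment, using inverse-variance-weighted replicate averages.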

Variant | polymerase ribozyme fitness (log ratio)
C54A C105U A121G | -0.876
U53A G141U | 0.504
C54U C76U C85G | -1.18
C54A G59U A91G U135A | -3.95
C54G C87U A106U A137U G140U A142C | ≤ -4.2
U53G C57G G70C C79G A89U A91U C93U | ≤ -4.2
U53A C96U C99U G143C | ≤ -4.2
U53A G92U C103A | -2.78
C54G A91G | -4.01
C54G A91U | ≤ -4.2
C54U A60G C95U | -0.803
C54A G58A A91U C95A | ≤ -4.2
U53G A119C A122C G141U | -0.69
C54G C85U C96G G112C U130A A142G C149A | ≤ -4.2
C54G U101G C118U | -2.4
U53G G59A | -1.37
C54G G94A C108A C125U | ≤ -4.2
U53C C57G C125U G143A | -3.67
C54U C63G G67C G143A | ≤ -4.2
C54A U101G U134C U139G U144A | -1.85
C54G G92C A106G | -2.99

Variant | polymerase ribozyme fitness (log ratio)
C54U A64C U90G U139G G140A | ≤ -4.2
C54A C85U | -1.86
C54A U55G G58U G81C C85A | -2.41
C54G U56A C96G U102C G136A U144G | -3.08
U53A G59C C85U U135A | -0.238
U53A C95A C125U | -1.7
C54A A91U G100A G141C | ≤ -4.2
C54G C79U G94C C96U A150G | ≤ -4.2
U53C G86A C95U | -1.78
U53A G58C C96U U135G | -3.98
C54A U56A G68U U82G G83C G133C | ≤ -4.2
C54A C96G C105U U144C | -2.85
U53G C87G G133U | ≤ -4.2
U53A C125U | -1.28
U53G A60G C87A | ≤ -4.2
U53G G80C | -4.15
U53A G80C A106C C125U | ≤ -4.2
U53A U144C U145G | -1.92
C54G U102C U144A | -3.91
U53G G58C U82G A138C U151A | ≤ -4.2
C54G G140A U146A | ≤ -4.2

Variant | polymerase ribozyme fitness (log ratio)
C54A G58C | -1.45
U53A G94A C125A U139C A142C | ≤ -4.2
U53A C93U U130G | ≤ -4.2
C54A C116U U139A | -4.11
C54U C57U C79A C85U C93G A107G C123G | ≤ -4.2
U53G C54A C95U U104C A106U C118U C149G | ≤ -4.2
C54U C57G G84U C96A | -3.23
U53G C87U A120C | -2.07
C54G G80U | -3.52
U53A C93A | -3.27
U53G G117C A137G | -2.86
C54U A64G G68A U77C G83A G88U U90G C132U U139G | ≤ -4.2
U53C U56A A89U C93U G141U | -1.74
C54A U55A C57A | 0.336
C54G G74C G81A G88C | ≤ -4.2
U53G U77G C129A A147C | ≤ -4.2
C54G C72U U82A U90G G141C | ≤ -4.2
C54A U101A | -2.39
U53A U146G | -2.38
C54A A150G | -3.37
C54A C69A G84A G88A | ≤ -4.2

Variant | polymerase ribozyme fitness (log ratio)
C54A C63G C69G C76G U82C C131G | ≤ -4.2
C54A C69U | -4.12
U53G C95U | -3.07
C54A A106C | -2.06
U53A G70A C99A G124C | ≤ -4.2
U53C G86U C96A U146A | -2.73
C54G C95U U127G | ≤ -4.2
C54G C57U C75A A97U G141C U145G | ≤ -4.2
U53A U56C G141U | -0.733
U53G U56A G94C A115C C123G | -3.89
C54A C57U G59U | -0.27
C54U A106G | -0.0717
C54U C75G U78C C79A G80U | ≤ -4.2
U53A G81C C87U C123A | -1.74
C54A C87A C114A C116G | ≤ -4.2
U53A C96U C103U | -1.14
U53G C72G C108G C116A | ≤ -4.2
C54A U55C C79A G86C C103G A147C | ≤ -4.2
C54A C93G U135G | ≤ -4.2
U53A G100U | -3.41
C54G G67A U77C C87A C99U U130G | ≤ -4.2

From the RNAGym collection of RNA variant scans (doi:10.1073/pnas.2313332121)
